Values quoted from earlier work as cited in publication PMC5074778.

Target: IL-6 receptor (Homo sapiens) (UniProt P08887)
Sequence of UniProt P08887 (P08887 20-365): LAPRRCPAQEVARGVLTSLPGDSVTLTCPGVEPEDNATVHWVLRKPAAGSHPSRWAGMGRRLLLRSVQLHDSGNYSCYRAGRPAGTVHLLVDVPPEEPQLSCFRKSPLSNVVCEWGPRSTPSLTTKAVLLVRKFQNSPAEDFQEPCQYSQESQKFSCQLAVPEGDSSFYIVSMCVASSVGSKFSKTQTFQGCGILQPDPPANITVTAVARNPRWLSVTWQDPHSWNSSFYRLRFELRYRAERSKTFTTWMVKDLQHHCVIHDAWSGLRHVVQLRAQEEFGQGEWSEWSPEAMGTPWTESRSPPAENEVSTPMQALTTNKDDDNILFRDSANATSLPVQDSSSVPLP

Tocilizumab
Kd: 2.5 nM
